Laboratory results: patent US20260151494A1 (ARO BIOTHERAPEUTICS, published 2026)

What was measured:
[1] = molecular target: T1, human CD71 extracellular domain (human, UniProt P02786 89-760); experiment: primary ELISA; further: test concentration or dose not given here
T1 construct: also called hCD71; CD71-ECD

[2] = molecular target: T2, human apical domain of CD71 (human, UniProt P02786 189-383, limits assumed); experiment: primary ELISA; further: test concentration or dose not given here
T2 construct: domain: apical domain

[3] = molecular target: T1, human CD71 extracellular domain; experiment: primary ELISA; signal over HSA control; on RLU: test concentration or dose not given here
[4] = molecular target: T2, human apical domain of CD71; experiment: primary ELISA; signal over HSA control; on RLU: test concentration or dose not given here

T1 sequence (P02786 89-760): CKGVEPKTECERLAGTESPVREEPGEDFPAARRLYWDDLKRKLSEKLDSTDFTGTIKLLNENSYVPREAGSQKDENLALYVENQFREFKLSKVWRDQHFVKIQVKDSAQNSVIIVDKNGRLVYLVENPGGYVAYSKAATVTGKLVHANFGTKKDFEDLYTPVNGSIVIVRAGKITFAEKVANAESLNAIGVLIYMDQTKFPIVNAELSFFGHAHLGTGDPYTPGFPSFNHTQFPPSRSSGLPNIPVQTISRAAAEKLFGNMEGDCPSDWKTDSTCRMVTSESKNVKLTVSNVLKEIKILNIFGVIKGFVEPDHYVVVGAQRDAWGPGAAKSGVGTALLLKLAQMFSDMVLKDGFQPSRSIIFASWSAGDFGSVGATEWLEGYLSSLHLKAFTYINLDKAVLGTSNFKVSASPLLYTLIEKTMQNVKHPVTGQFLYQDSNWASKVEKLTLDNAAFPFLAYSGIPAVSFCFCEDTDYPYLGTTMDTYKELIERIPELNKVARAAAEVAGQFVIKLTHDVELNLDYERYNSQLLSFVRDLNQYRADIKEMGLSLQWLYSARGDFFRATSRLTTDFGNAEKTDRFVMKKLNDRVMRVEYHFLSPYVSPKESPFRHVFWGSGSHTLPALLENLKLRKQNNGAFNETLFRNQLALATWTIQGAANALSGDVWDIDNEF
T2 sequence (P02786 189-383 limits assumed): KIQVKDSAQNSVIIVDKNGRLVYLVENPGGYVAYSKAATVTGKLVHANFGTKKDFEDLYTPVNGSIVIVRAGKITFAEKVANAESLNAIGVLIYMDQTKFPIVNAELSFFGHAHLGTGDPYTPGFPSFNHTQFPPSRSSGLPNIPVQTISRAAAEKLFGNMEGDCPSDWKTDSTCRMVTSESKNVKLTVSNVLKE

B1: CD71-binding FN3 domain SEQ ID NO 362 (designed binder)
chain: MLPAPKNLVVSRVTEDSARLSWTAPDAAFDSFEIAYWENNFNGEAIILIVPGSERSYDLTGLKPGTEYVVFISGVKGGTWSYPLVAQFTT
With B1 the RLU [1] was 2.24e+06 RLU, the RLU [2] was 4.86e+06 RLU and the “hCD71:HSA” value [3] was 47 ratio. The “Apical domain:HSA” value [4] was 102 ratio.

B2: CD71-binding FN3 domain SEQ ID NO 438 (designed binder)
chain: MLPAPKNLVVSRVTEDSARLSWTAPDAAFDSFFIGYLEPQPPGEAIDLWVPGSERSYDLTGLKPGTEYNVTIQGVKGGFPSYPLLAIFTT
With B2 the RLU [1] was 4.96e+06 RLU, the RLU [2] was 5.59e+06 RLU and the “hCD71:HSA” value [3] was 143 ratio. For the same binder, the “Apical domain:HSA” value [4] was 161 ratio.

B3: CD71-binding FN3 domain SEQ ID NO 445 (designed binder)
chain: MLPAPKNLVVSRVTEDSARLSWTAPDAAFDSFFIGYLEPQPPGEAIHLFVPGSERSYDLTGLKPGTEYNVTIQGVKGGFPSDPLVASFTT
For B3, the RLU [1] was 6.65e+06 RLU, the RLU [2] was 6.73e+06 RLU and the “hCD71:HSA” value [3] was 76 ratio. For the same binder, the “Apical domain:HSA” value [4] was 77 ratio.

B4: CD71-binding FN3 domain SEQ ID NO 443 (designed binder)
chain: MLPAPKNLVVSRVTEDSARLSWTAPDAAFDSFFIGYLEPQPPGEAIELYVPGSERSYDLTGLKPGTEYNVTIQGVKGGFPSDPLHAAFTT
B4 was tested, and the RLU [1] was 5.38e+06 RLU, the RLU [2] was 4.4e+06 RLU and the “hCD71:HSA” value [3] was 142 ratio. The “Apical domain:HSA” value [4] was 116 ratio.

B5: CD71-binding FN3 domain SEQ ID NO 439 (designed binder)
chain: MLPAPKNLVVSRVTEDSARLSWTAPDAAFDSFFIGYLEPQPPGEAIHLFVPGSERSYDLTGLKPGTEYNVTIQGVKGGFPSVPLNAYFTT
With B5 the RLU [1] was 5.47e+06 RLU, the RLU [2] was 6.56e+06 RLU and the “hCD71:HSA” value [3] was 215 ratio. For the same binder, the “Apical domain:HSA” value [4] was 258 ratio.

B6: CD71-binding FN3 domain SEQ ID NO 441 (designed binder)
chain: MLPAPKNLVVSRVTEDSARLSWTAPDAAFDSFFIGYLEPQPPGEAILLWVPGSERSYDLTGLKPGTEYNVTIQGVKGGFPSDPLIANFTT
With B6 the RLU [1] was 5.92e+06 RLU, the RLU [2] was 5.74e+06 RLU and the “hCD71:HSA” value [3] was 32 ratio. For the same binder, the “Apical domain:HSA” value [4] was 31 ratio.

B7: CD71-binding FN3 domain SEQ ID NO 370 (designed binder)
chain: MLPAPKNLVVSRVTEDSARLSWTAPDAAFDSFYIAYAEPRPDGEAIVLVVPGSERSYDLTGLKPGTEYSVLIHGVKGGLLSSPLSAHFTT
In the case of B7, the RLU [1] is reported as 2.13e+06 RLU, the RLU [2] is reported as 4.83e+06 RLU and the “hCD71:HSA” value [3] is reported as 212 ratio. The “Apical domain:HSA” value [4] was 480 ratio.

B8: CD71-binding FN3 domain SEQ ID NO 386 (designed binder)
chain: MLPAPKNLVVSRVTEDSARLSWTAPDAAFDSFYIAYAEPRPDGEAITLLVPGSERSYDLTGLKPGTEYSVLIHGVKGGLLSSPLSAIFTT
For B8, the RLU [1] was 1.28e+06 RLU, the RLU [2] was 3.96e+06 RLU and the “hCD71:HSA” value [3] was 130 ratio. For the same binder, the “Apical domain:HSA” value [4] was 400 ratio.

B9: CD71-binding FN3 domain SEQ ID NO 367 (designed binder)
chain: MLPAPKNLVVSRVTEDSARLSWTAPDAAFDSFYIAYAEPRPDGEAILLVVPGSERSYDLTGLKPGTEYSVLIHGVKGGLLSSPLVAFFTT
B9 was tested, and the RLU [1] was 4.62e+06 RLU, the RLU [2] was 6.51e+06 RLU and the “hCD71:HSA” value [3] was 47 ratio. For the same binder, the “Apical domain:HSA” value [4] was 66 ratio.

B10: CD71-binding FN3 domain SEQ ID NO 403 (designed binder)
chain: MLPAPKNLVVSRVTEDSARLSWTAPDAAFDSFYIAYAEPRPDGEAIVLDVPGSERSYDLTGLKPGTEYSVLIHGVKGGLLSSPLVADFTT
With B10 the RLU [1] was 3.64e+06 RLU, the RLU [2] was 5.34e+06 RLU and the “hCD71:HSA” value [3] was 233 ratio. For the same binder, the “Apical domain:HSA” value [4] was 342 ratio.

B11: CD71-binding FN3 domain SEQ ID NO 374 (designed binder)
chain: MLPAPKNLVVSRVTEDSARLSWTAPDAAFDSFYIAYAEPRPDGEAIQLSVPGSERSYDLTGLKPGTEYSVLIHGVKGGLLSSPLHASFTT
For B11, the RLU [1] was 1e+06 RLU, the RLU [2] was 3.64e+06 RLU and the “hCD71:HSA” value [3] was 76 ratio. The “Apical domain:HSA” value [4] was 277 ratio.

B12: CD71-binding FN3 domain SEQ ID NO 359 (designed binder)
chain: MLPAPKNLVVSRVTEDSARLSWTAPDAAFDSFLIPYAETSPSGEAIVLTVPGSERSYDLTGLKPGTEYSVLIHGVKGGDYSSPLSAIFTT
For B12, the RLU [1] was 3.57e+06 RLU, the RLU [2] was 6.97e+06 RLU and the “hCD71:HSA” value [3] was 120 ratio. For the same binder, the “Apical domain:HSA” value [4] was 233 ratio.

B13: CD71-binding FN3 domain SEQ ID NO 381 (designed binder)
chain: MLPAPKNLVVSRVTEDSARLSWTAPDAAFDSFEIAYQELSLWGEAIVLTVPGSERSYDLTGLKPGTEYYVHIGGVKGGIWSRPLSAIFTT
B13 was tested, and the RLU [1] was 2.48e+06 RLU, the RLU [2] was 5.14e+06 RLU and the “hCD71:HSA” value [3] was 110 ratio. For the same binder, the “Apical domain:HSA” value [4] was 227 ratio.

B14: CD71-binding FN3 domain SEQ ID NO 429 (designed binder)
chain: MLPAPKNLVVSRVTEDSARLSWTAPDAAFDSFEIGYFERSFYGEAIILFVPGSERSYDLTGLKPGTEYAVWIGGVKGGVWSRPLSAIFTT
For B14, the RLU [1] was 1.95e+06 RLU, the RLU [2] was 4.39e+06 RLU and the “hCD71:HSA” value [3] was 124 ratio. For the same binder, the “Apical domain:HSA” value [4] was 280 ratio.

B15: CD71-binding FN3 domain SEQ ID NO 348 (designed binder)
chain: MLPAPKNLVVSRVTEDSARLSWTAPDAAFDSFEISYFENTWYGEAIVLTVPGSERSYDLTGLKPGTEYVVWIGGVKGGLWSKPLSAIFTT
For B15, the RLU [1] was 1.83e+06 RLU, the RLU [2] was 4.8e+06 RLU and the “hCD71:HSA” value [3] was 115 ratio. The “Apical domain:HSA” value [4] was 302 ratio.

B16: CD71-binding FN3 domain SEQ ID NO 418 (designed binder)
chain: MLPAPKNLVVSRVTEDSARLSWTAPDAAFDSFEIAYFENSYYGEAIVLTVPGSERSYDLTGLKPGTEYAVYIGGVKGGSWSNPLSAISTT
In the case of B16, the RLU [1] is reported as 1.95e+06 RLU, the RLU [2] is reported as 5.05e+06 RLU and the “hCD71:HSA” value [3] is reported as 30 ratio. The “Apical domain:HSA” value [4] was 77 ratio.

B17: CD71-binding FN3 domain SEQ ID NO 388 (designed binder)
chain: MLPAPKNLVVSRVTEDSARLSWTAPDAAFDSFEIAYFEYCLNGEAIVLTVPGSERSYDLTGLKPGTEYWVQIGGVKGGTWSWPLSAIFTT
In the case of B17, the RLU [1] is reported as 1.09e+06 RLU, the RLU [2] is reported as 4.29e+06 RLU and the “hCD71:HSA” value [3] is reported as 34 ratio. For the same binder, the “Apical domain:HSA” value [4] was 135 ratio.

B18: CD71-binding FN3 domain SEQ ID NO 440 (designed binder)
chain: MLPAPKNLVVSRVTEDSARLSWTAPDAAFDSFEIVYAEWTQHGEAIVLTVPGSERSYDLTGLKPGTEYYVHIGGVKGGKWSPPLYAIFTT
With B18 the RLU [1] was 2.26e+06 RLU, the RLU [2] was 4.88e+06 RLU and the “hCD71:HSA” value [3] was 89 ratio. The “Apical domain:HSA” value [4] was 192 ratio.

B19: CD71-binding FN3 domain SEQ ID NO 390 (designed binder)
chain: MLPAPKNLVVSRVTEDSARLSWTAPDAAFDSFEIGYFERAWFGEAIVLTVPGSERSYDLTGLKPGTEYAVFIGGVKGGSYSYPLSAIFTT
B19 was tested, and the RLU [1] was 1.93e+06 RLU, the RLU [2] was 4.78e+06 RLU and the “hCD71:HSA” value [3] was 53 ratio. The “Apical domain:HSA” value [4] was 131 ratio.

B20: CD71-binding FN3 domain SEQ ID NO 407 (designed binder)
chain: MLPAPKNLVVSRVTEDSARLSWTAPDAAFDSFEIAYFETCRTGEAIVLTVPGSERSYDLTGLKPGTEYRVWIGGVKGGVWSRPLSAIFTT
B20 was tested, and the RLU [1] was 1.73e+06 RLU, the RLU [2] was 4.64e+06 RLU and the “hCD71:HSA” value [3] was 23 ratio. For the same binder, the “Apical domain:HSA” value [4] was 61 ratio.

B21: CD71-binding FN3 domain SEQ ID NO 358 (designed binder)
chain: MLPAPKNLVVSRVTEDSARLSWTAPDAAFDSFEIGYWENAYKGEAIVLTVPGSERSYDLTGLKPGTEYVVFIGGVKGGVWSVPLSAIFTT
For B21, the RLU [1] was 2.34e+06 RLU, the RLU [2] was 5.02e+06 RLU and the “hCD71:HSA” value [3] was 39 ratio. The “Apical domain:HSA” value [4] was 83 ratio.

B22: CD71-binding FN3 domain SEQ ID NO 352 (designed binder)
chain: MLPAPKNLVVSRVTEDSARLSWTAPDAAFDSFEIAYQELSLWGEAIVLTVPGSERSYDLTGLKPGTEYYVHIGGVKGGIWSSPLSAIFTT
For B22, the RLU [1] was 2.38e+06 RLU, the RLU [2] was 5.42e+06 RLU and the “hCD71:HSA” value [3] was 63 ratio. For the same binder, the “Apical domain:HSA” value [4] was 144 ratio.
